Measurements reported in the supplement of paper PMC9170038.

System: MS2 coat protein
Assay: apparent KD of MS2 coat protein; designed switch direction (-1 OFF switch, 1 ON switch): -1; higher = weaker reporter binding
How it was run: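 The reported apparent KD is a per-design median over clusters, from curve fits of normalised cluster fluorescence. Protein titrations used SNAP-549-labelled MS2 coat protein, doubled from 0.7 or 1.5 nM to 3 µM, in Tris-HCl pH 7.5 buffer with KCl, MgCl2, BSA, DTT, tRNA and Tween-20, with no input, 200 uM small-molecule ligand, or an oligonucleotide input. The RNA switches were transcribed on Illumina chips by stalled E. coli RNA polymerase.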

[1] = Eterna round: R95, input ligand: microRNA oligo, concentration not stated
[2] = Eterna round: R95, input ligand: FMN 200 uM
[3] = Eterna round: R95, input ligand: none

Sequence | apparent KD of MS2 coat protein (input ligand: FMN 200 uM) [nM] | apparent KD of MS2 coat protein (input ligand: none) [nM] | apparent KD of MS2 coat protein [1] [nM] | also measured
GGUCCGCAUGUCAGGAUAUACAUAUGGAUCAUAGAGUAGAAGGGACUUGAGGAUCACCCAAGUAACAAAAGAAG [Tiantere] (Eterna round: R97, puzzle: Brourd's mod of Exclusion 4) | 60.1 | 21.3 | – | –
UCGGCGCGAGGAUAUGCGGCUGGUGCUUCGGGCCCUGGCGUACAUGAGGAUCACCCAUGUAGAAGGCGCGCCGC [Apr-15 SS2-41] (puzzle: Exclusion 2) | – | – | 10.2 | –
GCCUGUGAAGGAUAUACAUGAGGAUCACCCAUGUGGCGGAUAUACCCGCCGAGACCGUGUAGAAGGUCAUAGUA [Xezauser] (puzzle: Exclusion 3) | – | – | 36.1 | –
CAAUAACAAGCGAGAUCCUACAUGAGGAUCACCCAUGUGCUCGUCUUAAAAGGUACUGUGACGAUAGUCACGGUACC [Mat - Sensor, turn-off var - Eli Mod - D98] (Eterna round: R97, puzzle: Sensor, turn-off variant 1) | 15.3 | 17.9 | – | –
CUUUUGUGAGGAUAUUAGUAGUAAUACAAUAGUAUUACUACUGAGAAGGCACAUGAGGAUCACCCAUGUUCCUC [Ex4 344 Omei mod 5] (puzzle: Exclusion 4) | – | – | 36.5 | –
UCUACGUCAGGAUAUACAAGCGGUGCUCUGAUGCUGUCCAGACAUGAGGAUCACCCAUGUAGAAGGGACGACAA [Eternabot (L1) Solution 68] (Eterna round: R97, puzzle: Exclusion 2) | 42.6 | 365 | – | –
CUAACAUGCUGGUGAUCAUACAUGAGGAUCACCCAUGUAACAAGCUUUUUGUUCGUCUUAUAAGAUUACUAGUAUGU [Stov1/10-B3] (Eterna round: R97, puzzle: Sensor, turn-off variant 1) | 38.8 | 52.3 | – | –
GAAAAGGUAGGAUAUACGAUAAGAAAGGGUAGAUAAUAAACACAUGAGGAUCACCCAUGUAGAAGGACCAAAAG [salish99_ex2_r3_102] (puzzle: Exclusion 2) | – | – | 35.4 | apparent KD of MS2 coat protein [2]: 139 nM; apparent KD of MS2 coat protein [3]: 39.7 nM
AAACUCCGGGUGAGGAUAUCUAGCAUCAAGACGCGAGAGAAGGCACUUGAGGAUCACCCAAGUACGUGGCCUAA [Quare] (Eterna round: R97, puzzle: Brourd's mod of Exclusion 4) | 153 | 99.9 | – | –
UGAUCAGACCGAGGAUAUACAGGGAGGACGCACGUGAGUGCGUCCACUACAUGAGGAUCACCCAUGUAGAAGGCGGUCUGAUCU [JL ENG2 1.99] (Eterna round: R96, puzzle: Exclusion NG 2) | 319 | 19.9 | – | apparent KD of MS2 coat protein (input ligand: microRNA oligo, concentration not stated): 16.9 nM
UAUUAGCAAGCGAGAUCCCACAUGAGGAUCACCCAUGUGCUCGUCUUAAGCCCAGAAUUACUGGGCGCUCGUCUUAU [Winner reversed engineered 20] (Eterna round: R97, puzzle: Sensor, turn-off variant 1) | 13.1 | 12.7 | – | –
UAACAAGCUUUAAGAUCCUACAUGAGGAUCACCCAUGUGCUCGUCUUAUAACGUACUGUGACGAAAGUCACGGUACG [JL TOV1 3.17] (Eterna round: R97, puzzle: Sensor, turn-off variant 1) | 206 | 160 | – | –
AGUACUAUGCGAGCUGACUUGCGUAGUGCAGCAGGUGUAACAUGAGGAUCACCCAUGUCCUCAUUUGCUCGUCUUAU [Mat - Sensor v3 - Turn-off var 2 - D8] (puzzle: Sensor v3, turn-off variant 2) | – | – | 326 | apparent KD of MS2 coat protein [2]: 250 nM; apparent KD of MS2 coat protein [3]: 248 nM
ACUCAGUGAGGAUAUCGCCAGAGAGCCGCAACAGCUCCUGAUGAGAAGGCACAUGAGGAUCACCCAUGUAAGCA [EX4 C.19] (Eterna round: R97, puzzle: Exclusion 4) | 321 | 116 | – | –
UCAGGUGCAGGAUAUACAUGAGGAUCACCCAUGUGAUUAGCAGUCCUCGGACUGCAAUGUAGAAGGGCACCUGA [E3/2-D2] (Eterna round: R97, puzzle: Exclusion 3) | 763 | 346 | – | –
GGGUGACAUGAGGAUCACCCAUGUCAGGAUAUGAUUCUGCUUGCGAAAGCGAGUAGAAUCAGAAGGGACAACCC (Eterna round: R97, puzzle: Exclusion 1) | 359 | 57 | – | –
